Measurements from patent WO2011147834A1 (dated 2011).
“And” between values parts separate entries of the source, which are not always exact repeats. Equal values may be shown once.

Key:
mouse CD19 = target: T1, mouse CD19 (mouse, UniProt P25918 19-547); assay: FACS on B-cells of the respective species
T1 construct: whole, on cells
T1 sequence (looked up): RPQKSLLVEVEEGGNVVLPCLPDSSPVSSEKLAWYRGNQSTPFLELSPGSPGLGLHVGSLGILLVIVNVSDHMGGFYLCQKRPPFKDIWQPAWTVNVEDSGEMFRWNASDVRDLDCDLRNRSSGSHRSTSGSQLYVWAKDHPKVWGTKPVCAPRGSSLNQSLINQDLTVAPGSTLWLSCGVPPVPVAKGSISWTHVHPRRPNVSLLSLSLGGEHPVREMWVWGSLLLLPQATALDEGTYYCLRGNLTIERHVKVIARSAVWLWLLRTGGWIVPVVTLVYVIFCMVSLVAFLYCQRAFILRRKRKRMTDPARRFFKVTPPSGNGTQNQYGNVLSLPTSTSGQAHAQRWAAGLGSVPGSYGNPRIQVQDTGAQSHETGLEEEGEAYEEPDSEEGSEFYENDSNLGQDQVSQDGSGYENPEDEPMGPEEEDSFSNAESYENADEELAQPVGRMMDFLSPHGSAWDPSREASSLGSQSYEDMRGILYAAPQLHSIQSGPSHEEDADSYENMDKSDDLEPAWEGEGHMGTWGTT

cynomolgus CD19 = target: T2, cynomolgus CD19 (cynomolgus, UniProt A0A2K5W8L9 20-557); assay: FACS on B-cells of the respective species
T2 construct: whole, on cells
T2 sequence: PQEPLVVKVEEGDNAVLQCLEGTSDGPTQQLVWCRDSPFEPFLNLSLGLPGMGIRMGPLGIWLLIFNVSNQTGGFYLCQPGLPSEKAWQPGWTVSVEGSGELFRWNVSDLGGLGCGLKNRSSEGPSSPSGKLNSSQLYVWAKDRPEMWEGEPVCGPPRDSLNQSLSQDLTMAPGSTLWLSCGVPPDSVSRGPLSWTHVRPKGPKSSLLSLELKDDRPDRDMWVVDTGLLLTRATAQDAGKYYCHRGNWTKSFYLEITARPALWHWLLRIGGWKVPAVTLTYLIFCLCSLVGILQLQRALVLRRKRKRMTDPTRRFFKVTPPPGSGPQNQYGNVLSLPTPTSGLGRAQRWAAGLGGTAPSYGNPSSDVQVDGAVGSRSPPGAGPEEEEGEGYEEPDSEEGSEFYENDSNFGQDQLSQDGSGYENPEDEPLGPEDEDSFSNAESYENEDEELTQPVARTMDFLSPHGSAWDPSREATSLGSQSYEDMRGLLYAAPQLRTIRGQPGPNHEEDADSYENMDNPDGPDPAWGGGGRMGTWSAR

rabbit CD19 = target: T3, rabbit CD19 (rabbit, UniProt G1TWR4 20-543); assay: FACS on B-cells of the respective species
T3 construct: whole, on cells
T3 sequence: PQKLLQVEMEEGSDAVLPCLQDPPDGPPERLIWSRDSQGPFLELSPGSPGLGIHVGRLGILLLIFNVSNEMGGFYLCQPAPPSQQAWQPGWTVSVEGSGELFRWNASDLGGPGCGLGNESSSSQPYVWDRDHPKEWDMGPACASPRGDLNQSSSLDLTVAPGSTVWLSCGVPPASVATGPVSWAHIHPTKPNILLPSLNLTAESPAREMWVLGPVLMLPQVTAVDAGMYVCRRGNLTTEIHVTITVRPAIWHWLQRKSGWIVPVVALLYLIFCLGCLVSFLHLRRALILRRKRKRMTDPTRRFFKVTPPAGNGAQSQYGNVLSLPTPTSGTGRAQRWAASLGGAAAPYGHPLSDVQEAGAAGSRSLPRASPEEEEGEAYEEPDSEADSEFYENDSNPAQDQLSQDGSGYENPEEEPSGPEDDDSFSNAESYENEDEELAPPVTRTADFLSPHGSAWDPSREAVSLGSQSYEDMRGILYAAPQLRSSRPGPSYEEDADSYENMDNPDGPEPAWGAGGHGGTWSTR

[1] = target: T4, human B-lymphocyte antigen CD19 (human, UniProt P15391 20-556); assay: FACS binding on Daudi cells, goat anti-mouse RPE detection
T4 construct: whole, on cells; Always presented on cells; No soluble CD19 was used; also called hCD19; human CD 19
T4 sequence (looked up): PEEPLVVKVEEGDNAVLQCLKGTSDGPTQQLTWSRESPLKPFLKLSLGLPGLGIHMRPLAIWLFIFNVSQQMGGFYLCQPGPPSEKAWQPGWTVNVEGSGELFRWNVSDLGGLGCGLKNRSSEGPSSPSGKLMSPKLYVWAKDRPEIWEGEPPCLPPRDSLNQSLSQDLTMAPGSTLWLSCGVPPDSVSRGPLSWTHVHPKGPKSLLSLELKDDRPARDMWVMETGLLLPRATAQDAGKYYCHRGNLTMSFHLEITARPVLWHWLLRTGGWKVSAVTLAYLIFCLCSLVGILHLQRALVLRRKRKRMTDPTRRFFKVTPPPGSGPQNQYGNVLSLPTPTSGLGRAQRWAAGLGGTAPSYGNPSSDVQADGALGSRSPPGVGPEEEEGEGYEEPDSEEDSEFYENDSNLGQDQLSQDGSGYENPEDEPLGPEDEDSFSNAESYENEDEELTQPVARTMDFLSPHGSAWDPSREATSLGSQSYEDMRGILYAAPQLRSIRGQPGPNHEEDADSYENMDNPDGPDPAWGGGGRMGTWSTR

[2] = target: T4, human B-lymphocyte antigen CD19; assay: cell-based or functional assay
[3] = target: T4, human B-lymphocyte antigen CD19; assay: cell ELISA on human CD19-transfected NIH3T3 cells against untransfected NIH3T3 cells

binding result (mouse CD19): no binding
binding result (cynomolgus CD19): no binding
binding result (rabbit CD19): no binding
EC50 [1]: 1.45 nM
EC50 of inhibition of Ca2+ influx in anti-IgM activated Ramos cells [2]: 0.37 nM and 56 ng/ml
ratio OD NIH3T3 CD 19 to OD NIH3T3 untransfected [3]: 11.4
B1: Mab381 (antibody, V domains shown)
VH: QVQLQQSGAELVRPGSSMKISCKASGYAFSSYWMNWVKQRPGQGLEWIGQIYPGDGDINYSGKFKGKVTLTADKSSSTAYMQLSSLTSEDSAVYFCARTITTVVGYVMDYWGQGTSVTVSS
VL: DIVMTQSHKFMSTSVGDRVSITCKASQDVGTVVAWYQQKPGQSPKLLIYWASTRHTGVPDRFTGSGSGTDFTLTISNVQSEDLADYFCQQYSSYPYTFGGGTKLEIKR
notes: Murine monoclonal antibody purified from hybridoma 8C3
